The results in this text go back to patent publication US20250000991A1, “NECTIN-4 ANTIBODIES AND ANTIBODY-DRUG CONJUGATES” (Eli Lilly and Company, priority 2023, published 2025).

One assay deals with T1, human Nectin-4 (Homo sapiens, UniProt Q96NY8).
T1 construct: His tag; purchased Acro Biosystems NE4-H52H3
T1 sequence (Q96NY8 32-510): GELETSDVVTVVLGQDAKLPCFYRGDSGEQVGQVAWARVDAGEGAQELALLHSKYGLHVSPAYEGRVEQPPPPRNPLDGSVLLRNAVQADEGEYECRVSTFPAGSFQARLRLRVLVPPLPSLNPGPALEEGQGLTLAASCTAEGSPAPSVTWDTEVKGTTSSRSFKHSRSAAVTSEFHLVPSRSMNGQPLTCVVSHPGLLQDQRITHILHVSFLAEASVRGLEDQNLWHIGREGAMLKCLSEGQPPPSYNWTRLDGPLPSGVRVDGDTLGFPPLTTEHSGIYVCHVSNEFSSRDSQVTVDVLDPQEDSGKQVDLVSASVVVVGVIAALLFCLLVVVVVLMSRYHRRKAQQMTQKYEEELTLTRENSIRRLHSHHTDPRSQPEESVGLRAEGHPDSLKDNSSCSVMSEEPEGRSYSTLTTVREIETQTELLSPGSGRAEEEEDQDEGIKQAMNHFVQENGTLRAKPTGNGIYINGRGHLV
Put plainly: Surface plasmon resonance (Biacore 8K+) binding of nectin-4 ADCs to human Nectin-4. Particulars: human Nectin-4, 37° C., ADC Formula XI DAR 8; n=3 mean ± SD, n=2 replicate values. The procedure:
(§1) An anti-human Fc sensor surface was prepared by amine-coupling of goat anti-human IgG Fc (Southern Biotech Cat. No. 2014-01, Birmingham, AL) to a Biacore Series S CM4 (Cytiva Cat. No. BR-100534) sensor surface at 25° C. For immobilization, a running buffer of 10 mM HEPES, 150 mM NaCl, 0.05% Tween-20, pH 7.4 was used. Flow cells 1 & 2 of all 8 channels were activated with a 1:1 (v/v) mixture of 400 mM 1-Ethyl-3-(3-dimethylaminopropyl) carbodiimide hydrochloride (EDC) and […] N-Hydroxysuccinimide (NHS) at a flow rate of 10 uL/min for 7 minutes. Then the anti-human IgG Fc capture reagent was coupled to the sensor surface (diluted to 50 μg/mL in 10 mM Acetate pH 4.5 buffer) by injecting it in all flow cells and channels at a flow rate of 10 uL/min for 7 minutes. Remaining active groups were blocked by injecting 100 mM ethylenediamine (in 200 mM Borate buffer, pH 8.5) in all flow cells and channels at a flow rate of 10 uL/min for 7 minutes. All channels and flow cells were then preconditioned using three consecutive 1-minute injections of 75 mM phosphoric acid at 10 uL/min.
(§2) In each analysis cycle, a different ADC was captured on flow cell 2 of each channel by injecting it at 5 μg/mL and 10 uL/min. After capture, the same analyte was injected on flow cells 1 and 2 in all 8 channels for 2 minutes at 30 uL/n and dissociation was monitored for 10 minutes. After dissociation, all surfaces were regenerated with three 1-minute injections of 5 mM phosphoric acid at 10 uL/min. ADC capture and analyte cycles were repeated to obtain analyte binding of each ADC at concentrations of 0, 2.5, 7.4, 22, 67, 200 and 600 nM nectin-4.
(§3) Sensorgram data were fit globally with the default 1:1 binding model in Biacore Insight Evaluation Software v3.0.12.15655.
Background: SPR reads the build-up and loss of mass on a sensor chip optically.

Another assay deals with rat Nectin-4. Put plainly: Surface plasmon resonance (Biacore 8K+) binding of nectin-4 ADCs to rat Nectin-4. Particulars: rat Nectin-4, 37° C., ADC Formula XI DAR 8, n=1. As for the experimental part:
as §1, §2, §3

Assay [1] relates to T24 mScarlet clone 5 Nectin-4 negative cells. Put plainly: Bystander killing of T24-mScarlet clone 5 cells co-cultured with T24-human nectin4 clone108 (imaging). Format: cell-based. As to conditions: T24-mScarlet clone5 : T24-human nectin4 clone108 9:1, 5 days, ADC Formula XI DAR 8; read-out: IC50 of bystander effect. As for the experimental part:
T24 cell line was engineered to express mScarlet and clonally selected to test in bystander assay. T24-mScarlet clone5 and T24-human nectin4 clone108 were mixed and seeded at a total of 1000 cells/well/100 ul with a ratio of 9:1 in culture medium (McCoy's 5A+1× GlutaMax+10% Heat Inactivated Fetal Bovine Serum+400 μg/ml G418) in flat clear bottom 96-well plates. T24 mScarlet clone 5 cells were negative for nectin-4 expression. Plates were incubated at 37° C. with 5% CO2 overnight. Next day, ADCs were added at final working concentration from 50 nM, 1:4 serially diluted in culture medium. Plates were covered with Breathe-Easy® sealing membrane, placed in BioSpa and scanned in Cytation5 every day for 5 days.
Images of T24-mScarlet cells were captured and analyzed by Cytation5 with Gen5 Image Prime 3.11. Percentage of T24-mScarlet cell killing was calculated by decreased Integrated Intensity (area×mean intensity), normalized to zero hour and no treatment. Data was graphed and analyzed using GraphPad Prism version 9.5.1. IC50 was determined via log(inhibitor) vs. response-variable slope (four parameters) curve fitting.

For another assay, the system named is cyno Nectin-4. As to the kind of experiment: Surface plasmon resonance (Biacore 8K+) binding of nectin-4 ADCs to cyno Nectin-4. Particulars: cyno Nectin-4, 37° C., ADC Formula XI DAR 8, n=1. The procedure:
as §1, §2, §3

B1: Ab3 (conjugate)
heavy: EVQLVESGGGLVKPGGSLRLSCAASGFNLNHYNMNWVRQAPGKGLEWVSSVSSGGGFRYYADSVRGRFTISRDNAKNSLYLQMNSLRAEDTAVYYCARGAVFHDAFDIWGQGTLVTVSSASTKGPSVFPLAPSSKSTSGGTAALGCLVKDYFPEPVTVSWNSGALTSGVHTFPAVLQSSGLYSLSSVVTVPSSSLGTQTYICNVNHKPSNTKVDKRVEPKSCDKTHTCPPCPAPEAAGGPSVFLFPPKPKDTLMISRTPEVTCVVVSVSHEDPEVKFNWYVDGVEVHNAKTKPREEQYNSTYRVVSVLTVLHQDWLNGKEYKCKVSNKALPAPIEKTISKAKGQPREPQVYTLPPSREEMTKNQVSLTCLVKGFYPSDIAVEWESNGQPENNYKTTPPVLDSDGSFFLYSKLTVDKSRWQQGNVFSCSVMHEALHNHYTQKSLSLSPGK
light: DIQLTQSPSFLSASVGDRVTITCRASQDISSYLAWYQQKPGKAPKLLIYVASTLQSGVPSRFSGSGSGTEFTLTISSLQPEDFATYYCQQINSYPFTFGQGTKVEIKRTVAAPSVFIFPPSDEQLKSGTASVVCLLNNFYPREAKVQWKVDNALQSGNSQESVTEQDSKDSTYSLSSTLTLSKADYEKHKVYACEVTHQGLSSPVTKSFNRGEC
By IC50 is commonly meant the point on the concentration scale where inhibition reaches its midpoint. Consider B1, for which the ka result with human Nectin-4 is “(4.24 ± 0.76) × 10^5 1/Ms”; in the assay with rat Nectin-4, 171000 M⁻¹ s⁻¹; with cyno Nectin-4 it was 432000 M⁻¹ s⁻¹. Further, the kd entry was “(4.37 ± 1.56) × 10^−4 1/s” in the assay with human Nectin-4, 0.000903 s⁻¹ on rat Nectin-4 and 0.000426 s⁻¹ at cyno Nectin-4. Moreover, the IC50 in assay [1] amounted to 0.047 nM.

B2: Ab6 (conjugate)
heavy: QVQLVQSGAEVKKPGASVKVSCKASGYTFTGYYMHWVRQAPGQGLEWMGIINPSGGSTTYAQKFQGRVTMTRDTSTSTVYMELSSLRSEDTAVYYCARGRLGTYFDYWGQGTLVTVSSASTKGPSVFPLAPSSKSTSGGTAALGCLVKDYFPEPVTVSWNSGALTSGVHTFPAVLQSSGLYSLSSVVTVPSSSLGTQTYICNVNHKPSNTKVDKRVEPKSCDKTHTCPPCPAPEAAGGPSVFLFPPKPKDTLMISRTPEVTCVVVSVSHEDPEVKFNWYVDGVEVHNAKTKPREEQYNSTYRVVSVLTVLHQDWLNGKEYKCKVSNKALPAPIEKTISKAKGQPREPQVYTLPPSREEMTKNQVSLTCLVKGFYPSDIAVEWESNGQPENNYKTTPPVLDSDGSFFLYSKLTVDKSRWQQGNVFSCSVMHEALHNHYTQKSLSLSPGK
light: SYVLTQPPSVSVAPGQTARITCGGNNIGSKSVHWYQQKPGQAPVLVVYDDSDRPSGIPERFSGSNSGNTATLTISRVEAGDEADYYCQVWDRSSDQVVFGGGTKLTVLGQPKAAPSVTLFPPSSEELQANKATLVCLISDFYPGAVTVAWKADSSPVKAGVETTTPSKQSNNKYAASSYLSLTPEQWKSHRSYSCQVTHEGSTVEKTVAPTECS
As to B2, in the assay with human Nectin-4, the ka result is recorded as “(1.78 ± 0.41) × 10^6 1/Ms” and the kd result is “(1.63 ± 0.25) × 10^−1 1/s”. Also, in the assay with rat Nectin-4, the ka worked out at 925000 M⁻¹ s⁻¹ and the kd was 0.105 s⁻¹. Further, the IC50 in assay [1] was determined as 0.0587 nM. Besides, the KD result at cyno Nectin-4 (KD = kd/ka) is “heterogeneous kinetics*”.
